B1: CCDC6 (parent)
chain: TLFKKIQALQKEKETLAVNYEKEE
B2: PRPH (parent)
chain: DEIEFLKKLHEEELRDLQVSVESQ

Variants of: B1
Assay: protein stability index of a GFP-peptide fusion (GPS, HEK-293T) (PSI 1-6); higher = more stable
Details: c terminus: a fixed tail appended
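Also: lentivirally expressed fusions sorted by FACS into six bins by GFP to DsRed ratio, PSI derived from sequencing read proportions per bin multiplied by bin number.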

Protein stability index of substitutions, site by site:
T1: R 3.04; H 3.48; N 4.12; C 3.34; G 3.73; S 2.92
E24: L 2.55; H 2.39; M 2.34; K 2.41; N 2.7
I6: Q 4.28; D 5.34; M 4.32; R 4.79
K11: G 3.71; D 3.79; R 2.59; A 3.23; H 3.28; C 3.12; N 3.55; V 2.81
N19: I 2.7; F 2.18; Q 3.08; L 2.41
Q10: L 2.45; E 4.41; I 2.35
T15: V 3.42; Y 3.08; C 2.84; L 2.54; E 3.77; D 3.89
K22: W 2.48; N 3.12; V 2.94; M 3.08; P 3.5
E12: P 3.66; K 2.59; D 3.37; I 2.27; N 3.09; F 1.85
A17: Q 3.04; G 3.1; L 2.51; W 2.16; I 2.85
E21: S 3.06; M 2.11; C 2.53; G 3.01; I 1.97
F3: W 2.26; G 5.23; R 4.38; A 4.68
V18: E 3.2; G 3.15; T 3.02; M 2.81
K13: T 3.4; Q 3.13; P 3.51; Y 2.09; L 1.93; W 1.91
K4: C 2.73; I 2.76; M 2.8; Q 3.56; W 2.74; A 3.01; L 3.05; N 3.68
L16: R 3.02; C 3.05; M 3.24; S 4.02; F 2.81
E14: Q 3.11; T 2.55; W 2.03; I 2.25; G 3.1; H 2.58; C 2.89; K 2.94; A 2.6
Q7: R 2.98; E 3.57; A 2.85
L9: Q 4.48; Y 3.23; H 3.88; A 3.92
L2: R 5.13; N 5.26; I 3.4; W 3.68; A 4.08; C 4.55
A8: Q 3.23; H 3.25; D 3.51; W 2.75; K 3.88; Y 2.75; F 3.54
K5: R 2.75; D 4.85; C 2.52; A 2.43; E 4.27; T 2.95; Q 3.36
E23: A 2.68; Y 2.76; R 2.29; D 3.32; M 2.7; W 1.78
Y20: C 3.32; P 3.21; W 3.26; R 3.53; V 3.47; G 3.71; M 2.45; A 3.54

Variants of: B2
Assay: as above
Details: c terminus: a fixed tail appended

Protein stability index, by site and new letter:
R15: G 4.28; Q 4.66; E 4.83; V 4.94; T 4.51; L 4.38; P 4.98
S20: Q 4.86; W 4.45; Y 4.45; P 4.96; F 3.97; M 4.81
E22: S 4.74; N 4.48; T 4.72; I 3.29; Y 3.75; D 4.99; M 4.27; L 3.88; P 5.25; W 3.29
L6: G 5.07; Y 4.72; C 5.09; D 5.56; Q 5.54; P 5.33; K 4.99; E 5.18; N 5.61; I 4.97
L14: I 4.66; F 4.24; C 5.18; A 4.95; T 5.78; G 5.14
Q18: I 4.4; P 5.3; R 4.62; W 3.39; D 5.27; F 3.36; E 4.81; S 5.08; V 4.38
F5: T 5.1; M 5; D 5.27; Q 5.41; H 4.85; G 5.36; S 5.07
I3: R 5.28; H 5.24; T 5.25; W 4.41; C 5.09; D 5.68
V21: G 4.92; E 5.81; Q 4.39; T 4.96; W 4.36; A 5.45; L 4.71; F 4.43; C 4.98
E13: Q 4.65; K 5.25; R 4.42; F 2.85; Y 3.95; H 4.45; V 3.73; T 4.05; S 4.16
K8: V 4.06; Y 4.23; T 4.78; I 4.35; W 3.45; E 4.37; L 4.32; P 5.23; Q 4.98; C 3.8; M 4.25
E4: P 4.62; Q 4.34; C 3.93; R 3.98
D1: N 4.78; H 4.99; K 3.95; R 4.01; A 4.22; E 4.78
E11: L 4.11; D 4.94; A 4.29; K 4.92; F 3.69; H 4.42; V 3.99; Y 2.95; S 4.52
E2: M 2.05; P 4.13; K 3.94; G 3.56; Y 1.91; Q 3.73; F 2.13; V 2
S23: R 4.62; V 4.59; E 4.67; G 5.13; L 4.54; C 4.55; W 3.45; F 4.36; K 4.5; T 4.95; D 5.04
E12: A 4.69; K 4.82; Y 4.07; P 4.77; V 4.1; L 4.04; H 4.64; S 4.67
D16: V 4.34; T 4.72; S 5.14; C 4.28; G 4.95; I 3.82; A 4.6; R 3.96; M 3.9
V19: I 5.18; N 4.87; M 4.76; G 5.15; S 4.6; H 5.27; Y 4.56; C 5.23; P 4.93
K7: F 2.11; T 3.15; A 4.11; W 1.96; E 4.83; S 3.85; P 5.04; R 4.59; M 3.07
L9: S 5.4; Q 4.98; M 4.82; Y 4.44; D 5.27; C 4.9; P 5.52; G 5.58
H10: L 2.52; R 4.87; C 4.56; M 3.88; A 4.42; K 4.78; V 3.52; S 5.18
Q24: V 4.23; I 4.35; H 4.52; C 3.37; T 4.76; L 4.66; A 4.57; E 4.57; D 4.46; P 3.96
L17: P 5.16; W 4.8; H 4.6; R 5.06; Q 5.15; N 4.45; M 4.97; D 5.25; I 4.97; K 4.81; S 4.9
